Test results: publication PMC8407328

Experiments:
[1] = biological target: T1, His-RcrR (Streptococcus mutans UA159) (UniProt Q8DUK6); assay: EMSA
T1 sequence: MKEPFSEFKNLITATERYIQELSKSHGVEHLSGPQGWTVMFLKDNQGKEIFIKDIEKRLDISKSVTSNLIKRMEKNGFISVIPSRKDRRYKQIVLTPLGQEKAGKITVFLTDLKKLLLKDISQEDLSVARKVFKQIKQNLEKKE

[2] = biological target: T1, His-RcrR (Streptococcus mutans UA159); assay: DNase I footprinting

With “AAAAACTCCTTTAAATTTCGTTAAGGATAATTTTGAGCAGTAAAAAAGCTCCTAATATAAAAATAGGAGCTGCCAAATAATAGGCTGGTTTTTTTTATAGATGGCTTCTCCCAAACATCCTTATGTAATTCTTCAATATGGTAACATGAAAATAGGGAAAAAGCAAATTTGTTCAATAAAGCCA (double strand) [P1 (rcrR promoter fragment 1)]” the binding [1] was “no binding”.

In the case of “AGCGGTTTGAGCACTTTCACTACAGCGAAAAAGCAATCGTTTAAAGTGACTTTATCACCATCAAGCTATAAAAAATTAAATTAGTTCTCATAGAAACTTTTTTCTTGACAATAGTTTAAGGAATCATTATAATAGTTTTCATGAGAACTATTATAATATTCTCATAAAAAGTGAGGTGTTTTT (double strand) [P3 (rcrR promoter fragment 3)]”, the binding [1] is reported as “binds”.

With “AGCGGTTTGAGCACTTTCACTACAGCGAAAAAGCAATCGTTTAAAGTGACTTTATCACCATCAAGCTATAAAAAATTAAATTAGTTCTCATAGAAACTTTTTTCTTGACAATAGTTTAAGGAATCATTATAATAGTTTTCATGAGAACTATTATAATATTCTCATAAAAAGTGAGGTGTTTTT (double strand) [P3 FAM-labeled]” the binding [2] was “binds”.

“GTCTTAGAAAGTAGTCAGAAGGATTAGACTTGTTTGGAAATGAATTATTCTTTTTATGGTTGTGGCTTTTCTTAAGTAATGAAGGCGAAAAGTGAATAGTCCAGCGGACTATTTTAGAAATTCAAGGGAGTTCCATTCTTTTTGGCGCCCCTAGGTCTTACCAACACCTCATGATAGAACTATA (double strand) [P2 (rcrR promoter fragment 2)]” was tested, and the binding [1] was “no binding”.

“TAAATTTTTCCTAGGTTAACCTAGTCCTCCTTTAATATGATAACAGTACGTTTACTTTTTCATTGTAAACGATTACAAATTTGTTGGCAAGTTGTCCATAGGAAAAAAGCGCAATTTTTGTTAAAATAAAGTCAGTTGTATGCATTTTTTTAGACAAATTAGATTGAATTGCTTA (double strand) [PSMU_2038 (trehalose PTS promoter)]” was tested, and the binding [1] was “binds”.
